Laboratory results as given in patent US20230414709A1 (TRUSTEES OF COLUMBIA UNIVERSITY IN THE CITY OF NEW YORK, published 2023).

B1: NGAL mutant A1 (ligand)
chain: QDSTSDLIPAPPLSSVPLQQNFQDNQFQGKWYVVGLAGNAILREDKDPQKMYATIYELKEDKSYNVTSVLFRKKKCDYWIRTFVPGCQPGEFTLGNIKSYPGLTSYLVRVVSTNYNQHAMVFFKKVSQNREYFKITLYGRTKELTSELKENFIRFSKSLGLPENHIVFPVPIDQCIDG
B2: NGAL mutant G1 (ligand)
chain: QDSTSDLIPAPPLSSVPLQQNFQDNQFQGKWYVVGLAGNAILQEDKDPQKMYATIYELKEDKSYNVTSVLFRKKKCDYWIRTFVPGCQPGEFTLGNIKSYPGLTSYLVRVVSTNYNQHAMVFFKKVSQNREYFKITLYGRTKELTSELQENFIRFSKSLGLPENHIVFPVPIDQCIDG
B3: NGAL mutant F2 (ligand)
chain: QDSTSDLIPAPPLSKVPLQQNFQDNQFQGKWYVVGLAGNAILREDEDPQKMYATIYELQEDKSYNVTSVLFRKKKCDYWIRTFVPGCQPGEFTLGNIKSYPGLTSYLVRVVSTNYNQHAMVFFKKVSQNREYFKITLYGRTKELTSELKENFIRFSKSLGLPENHIVFPVPIDQCIDG
B4: NGAL mutant D1 (ligand)
chain: QDSTSDLIPAPPLSKVPLQQNFQDNQFQGKWYVVGLAGNAILREDKDPQKMYATIYELKEDKSYNVTSVLFRDDGCDYWIRTFVPGCQPGEFTLGNIKSYPGLTSYLVRVVSTNYNQHAMVFFKKVSQNREYFKITLYGRTKELTSELKENFIRFSKSLGLPENHIVFPVPIDQCIDG
B5: NGAL mutant C5 (ligand)
chain: QDSTSDLIPAPPLSKVPLQQNFQDNQFQGKWYVVGLAGNAILREDKDPQKMYATIYELKEDKSYNVTSVLFQKKKCDYWIRTFVPGCQPGEFTLGNIKSYPGLTSYLVRVVSTNYNQHAMVFFKKVSQNREYFKITLYGRTKELTSELKENFIRFSQSLGLPENHIVFPVPIDQCIDG
B6: NGAL mutant I1 (ligand)
chain: QDSTSDLIPAPPLSSVPLQQNFQDNQFQGKWYVVGLAGNAILREDKDPQKMYATIYELKEDKSYNVTSVLFRDDGCDYWIRTFVPGCQPGEFTLGNIKSYPGLTSYLVRVVSTNYNQHAMVFFKKVSQNQEYFKITLYGRTKELTSELKENFIRFSKSLGLPENHIVFPVPIDQCIDG
B7: NGAL mutant I3 (ligand)
chain: QDSTSDLIPAPPLSKVPLQQNFQDNQFQGKWYVVGLAGNAILREDKDPQKMYATIYELKEDGSYNVTSVLFRDDGCDYWIRTFVPGCQPGEFTLGNIQSYPGLTSYLVRVVSTNYNQHAMVFFKKVSQNREYFKITLYGRTKELTSELKENFIRFSKSLGLPENHIVFPVPIDQCIDG
B8: NGAL mutant K5 (ligand)
chain: QDSTSDLIPAPPLSSVPLQQNFQDNQFQGKWYVVGLAGNAILREDEDPQKMYATIYELKEDKSYNVTSVLFRKKKCDYWIRTFVPGCQPGEFTLGNIQSYPGLTSYLVRVVSTNYNQFAMVFFKKVSQNQEYFKITLYGRTKELTSELQENFIRFSKSLGLPENNIVFPVPIDQCIDG
B9: NGAL mutant H3 (ligand)
chain: QDSTSDLIPAPPLSKVPLQQNFQDNQFQGKWYVVGLAGNAILREDKDPQKMYATIYELKEDKSYNVTSVLFRKKKCDYWIRTFVPGCQPGEFTLGNIKSYPGLTSYLVRVVSTNYNQFAMVFFKKVSQNREYFKITLYGRTKELTSELQENFIRFSKSLGLPENNIVFPVPIDQCIDG
B10: NGAL mutant A3 (ligand)
chain: QDSTSDLIPAPPLSKVPLQQNFQDNQFQGKWYVVGLAGNAILQEDKDPQKMYATIYELKEDKSYNVTSVLFRKKKCDYWIRTFVPGCQPGEFTLGNIKSYPGLTSYLVRVVSTNYNQHAMVFFKKVSQNREYFKITLYGRTKELTSELKENFIRFSKSLGLPENHIVFPVPIDQCIDG
B11: NGAL mutant H2 (ligand)
chain: QDSTSDLIPAPPLSSVPLQQNFQDNQFQGKWYVVGLAGNAILREDKDPQKMYATIYELKEDKSYNVTSVLFRKKKCDYWIRTFVPGCQPGEFTLGNIQSYPGLTSYLVRVVSTNYNQFAMVFFKKVSQNQEYFKITLYGRTKELTSELQENFIRFSKSLGLPENNIVFPVPIDQCIDG
B12: NGAL mutant B2 (ligand)
chain: QDSTSDLIPAPPLSSVPLQQNFQDNQFQGKWYVVGLAGNAILREDEDPQKMYATIYELKEDKSYNVTSVLFRKKKCDYWIRTFVPGCQPGEFTLGNIKSYPGLTSYLVRVVSTNYNQFAMVFFKKVSQNREYFKITLYGRTKELTSELKENFIRFSKSLGLPENNIVFPVPIDQCIDG
B13: NGAL mutant F5 (ligand)
chain: QDSTSDLIPAPPLSSVPLQQNFQDNQFQGKWYVVGLAGNAILREDEDPQKMYATIYELKEDKSYNVTSVLFRKKKCDYWIRTFVPGCQPGEFTLGNIKSYPGLTSYLVRVVSTNYNQHAMVFFKKVSQNREYFKITLYGRTKELTSELQENFIRFSKSLGLPENNIVFPVPIDQCIDG
B14: NGAL mutant K1 (ligand)
chain: QDSTSDLIPAPPLSSVPLQQNFQDNQFQGKWYVVGLAGNAILREDEDPQKMYATIYELQEDKSYNVTSVLFRKKKCDYWIRTFVPGCQPGEFTLGNIQSYPGLTSYLVRVVSTNYNQFAMVFFKKVSQNQEYFKITLYGRTKELTSELQENFIRFSKSLGLPENNIVFPVPIDQCIDG
B15: NGAL mutant K2 (ligand)
chain: QDSTSDLIPAPPLSSVPLQQNFQDNQFQGKWYVVGLAGNAILREDKDPQKMYATIYELKEDKSYNVTSVLFRDDGCDYWIRTFVPGCQPGEFTLGNIQSYPGLTSYLVRVVSTNYNQFAMVFFKKVSQNQEYFKITLYGRTKELTSELQENFIRFSKSLGLPENNIVFPVPIDQCIDG
B16: NGAL mutant F4 (ligand)
chain: QDSTSDLIPAPPLSSVPLQQNFQDNQFQGKWYVVGLAGNAILREDEDPQKMYATIYELKEDKSYNVTSVLFRKKKCDYWIRTFVPGCQPGEFTLGNIKSYPGLTSYLVRVVSTNYNQHAMVFFKKVSQNREYFKITLYGRTKELTSELQENFIRFSKSLGLPENHIVFPVPIDQCIDG
B17: NGAL mutant H5 (ligand)
chain: QDSTSDLIPAPPLSSVPLQQNFQDNQFQGKWYVVGLAGNAILREDKDPQKMYATIYELKEDKSYNVTSVLFRKKKCDYWIRTFVPGCQPGEFTLGNIQSYPGLTSYLVRVVSTNYNQHAMVFFKKVSQNREYFKITLYGRTKELTSELKENFIRFSKSLGLPENNIVFPVPIDQCIDG
B18: NGAL mutant D2 (ligand)
chain: QDSTSDLIPAPPLSKVPLQQNFQDNQFQGKWYVVGLAGNAILREDKDPQKMYATIYELKEDGSYNVTSVLFRKKKCDYWIRTFVPGCQPGEFTLGNIKSYPGLTSYLVRVVSTNYNQHAMVFFKKVSQNREYFKITLYGRTKELTSELKENFIRFSKSLGLPENHIVFPVPIDQCIDG
B19: NGAL mutant A2 (ligand)
chain: QDSTSDLIPAPPLSSVPLQQNFQDNQFQGKWYVVGLAGNAILREDKDPQKMYATIYELKEDKSYNVTSVLFRKKKCDYWIRTFVPGCQPGEFTLGNIKSYPGLTSYLVRVVSTNYNQHAMVFFKKVSQNREYFKITLYGQTQELTSELKENFIRFSKSLGLPENHIVFPVPIDQCIDG
B20: NGAL mutant B1 (ligand)
chain: QDSTSDLIPAPPLSKVPLQQNFQDNQFQGKWYVVGLAGNAILREDKDPQKMYATIYELKEDKSYNVTSVLFRKKKCDYWIRTFVPGCQPGEFTLGNIQSYPGLTSYLVRVVSTNYNQFAMVFFKKVSQNREYFKITLYGRTKELTSELKENFIRFSKSLGLPENNIVFPVPIDQCIDG
B21: NGAL mutant I5 (ligand)
chain: QDSTSDLIPAPPLSSVPLQQNFQDNQFQGKWYVVGLAGNAILREDKDPQKMYATIYELKEDGSYNVTSVLFRDDGCDYWIRTFVPGCQPGEFTLGNIKSYPGLTSYLVRVVSTNYNQHAMVFFKKVSQNQEYFKITLYGRTKELTSELKENFIRFSKSLGLPENHIVFPVPIDQCIDG
B22: NGAL mutant G3 (ligand)
chain: QDSTSDLIPAPPLSKVPLQQNFQDNQFQGKWYVVGLAGNAILREDKDPQKMYATIYELKEDKSYNVTSVLFRKKKCDYWIRTFVPGCQPGEFTLGNIKSYPGLTSYLVRVVSTNYNQHAMVFFKKVSQNREYFKITLYGRTKELTSELKENFIRFSQSLGLPENHIVFPVPIDQCIDG
B23: NGAL mutant F1 (ligand)
chain: QDSTSDLIPAPPLSSVPLQQNFQDNQFQGKWYVVGLAGNAILREDEDPQKMYATIYELQEDKSYNVTSVLFRKKKCDYWIRTFVPGCQPGEFTLGNIKSYPGLTSYLVRVVSTNYNQHAMVFFKKVSQNREYFKITLYGRTKELTSELKENFIRFSKSLGLPENHIVFPVPIDQCIDG
B24: NGAL mutant H1 (ligand)
chain: QDSTSDLIPAPPLSKVPLQQNFQDNQFQGKWYVVGLAGNAILREDKDPQKMYATIYELKEDKSYNVTSVLFRKKKCDYWIRTFVPGCQPGEFTLGNIKSYPGLTSYLVRVVSTNYNQHAMVFFKKVSQNREYFKITLYGRTKELTSELKENFIRFSKSLGLPENNIVFPVPIDQCIDG

molecular target: mouse megalin (mouse, UniProt A2ARV4 26-4660); test: cell-based or functional assay
Sequence (A2ARV4 26-4660 limits assumed): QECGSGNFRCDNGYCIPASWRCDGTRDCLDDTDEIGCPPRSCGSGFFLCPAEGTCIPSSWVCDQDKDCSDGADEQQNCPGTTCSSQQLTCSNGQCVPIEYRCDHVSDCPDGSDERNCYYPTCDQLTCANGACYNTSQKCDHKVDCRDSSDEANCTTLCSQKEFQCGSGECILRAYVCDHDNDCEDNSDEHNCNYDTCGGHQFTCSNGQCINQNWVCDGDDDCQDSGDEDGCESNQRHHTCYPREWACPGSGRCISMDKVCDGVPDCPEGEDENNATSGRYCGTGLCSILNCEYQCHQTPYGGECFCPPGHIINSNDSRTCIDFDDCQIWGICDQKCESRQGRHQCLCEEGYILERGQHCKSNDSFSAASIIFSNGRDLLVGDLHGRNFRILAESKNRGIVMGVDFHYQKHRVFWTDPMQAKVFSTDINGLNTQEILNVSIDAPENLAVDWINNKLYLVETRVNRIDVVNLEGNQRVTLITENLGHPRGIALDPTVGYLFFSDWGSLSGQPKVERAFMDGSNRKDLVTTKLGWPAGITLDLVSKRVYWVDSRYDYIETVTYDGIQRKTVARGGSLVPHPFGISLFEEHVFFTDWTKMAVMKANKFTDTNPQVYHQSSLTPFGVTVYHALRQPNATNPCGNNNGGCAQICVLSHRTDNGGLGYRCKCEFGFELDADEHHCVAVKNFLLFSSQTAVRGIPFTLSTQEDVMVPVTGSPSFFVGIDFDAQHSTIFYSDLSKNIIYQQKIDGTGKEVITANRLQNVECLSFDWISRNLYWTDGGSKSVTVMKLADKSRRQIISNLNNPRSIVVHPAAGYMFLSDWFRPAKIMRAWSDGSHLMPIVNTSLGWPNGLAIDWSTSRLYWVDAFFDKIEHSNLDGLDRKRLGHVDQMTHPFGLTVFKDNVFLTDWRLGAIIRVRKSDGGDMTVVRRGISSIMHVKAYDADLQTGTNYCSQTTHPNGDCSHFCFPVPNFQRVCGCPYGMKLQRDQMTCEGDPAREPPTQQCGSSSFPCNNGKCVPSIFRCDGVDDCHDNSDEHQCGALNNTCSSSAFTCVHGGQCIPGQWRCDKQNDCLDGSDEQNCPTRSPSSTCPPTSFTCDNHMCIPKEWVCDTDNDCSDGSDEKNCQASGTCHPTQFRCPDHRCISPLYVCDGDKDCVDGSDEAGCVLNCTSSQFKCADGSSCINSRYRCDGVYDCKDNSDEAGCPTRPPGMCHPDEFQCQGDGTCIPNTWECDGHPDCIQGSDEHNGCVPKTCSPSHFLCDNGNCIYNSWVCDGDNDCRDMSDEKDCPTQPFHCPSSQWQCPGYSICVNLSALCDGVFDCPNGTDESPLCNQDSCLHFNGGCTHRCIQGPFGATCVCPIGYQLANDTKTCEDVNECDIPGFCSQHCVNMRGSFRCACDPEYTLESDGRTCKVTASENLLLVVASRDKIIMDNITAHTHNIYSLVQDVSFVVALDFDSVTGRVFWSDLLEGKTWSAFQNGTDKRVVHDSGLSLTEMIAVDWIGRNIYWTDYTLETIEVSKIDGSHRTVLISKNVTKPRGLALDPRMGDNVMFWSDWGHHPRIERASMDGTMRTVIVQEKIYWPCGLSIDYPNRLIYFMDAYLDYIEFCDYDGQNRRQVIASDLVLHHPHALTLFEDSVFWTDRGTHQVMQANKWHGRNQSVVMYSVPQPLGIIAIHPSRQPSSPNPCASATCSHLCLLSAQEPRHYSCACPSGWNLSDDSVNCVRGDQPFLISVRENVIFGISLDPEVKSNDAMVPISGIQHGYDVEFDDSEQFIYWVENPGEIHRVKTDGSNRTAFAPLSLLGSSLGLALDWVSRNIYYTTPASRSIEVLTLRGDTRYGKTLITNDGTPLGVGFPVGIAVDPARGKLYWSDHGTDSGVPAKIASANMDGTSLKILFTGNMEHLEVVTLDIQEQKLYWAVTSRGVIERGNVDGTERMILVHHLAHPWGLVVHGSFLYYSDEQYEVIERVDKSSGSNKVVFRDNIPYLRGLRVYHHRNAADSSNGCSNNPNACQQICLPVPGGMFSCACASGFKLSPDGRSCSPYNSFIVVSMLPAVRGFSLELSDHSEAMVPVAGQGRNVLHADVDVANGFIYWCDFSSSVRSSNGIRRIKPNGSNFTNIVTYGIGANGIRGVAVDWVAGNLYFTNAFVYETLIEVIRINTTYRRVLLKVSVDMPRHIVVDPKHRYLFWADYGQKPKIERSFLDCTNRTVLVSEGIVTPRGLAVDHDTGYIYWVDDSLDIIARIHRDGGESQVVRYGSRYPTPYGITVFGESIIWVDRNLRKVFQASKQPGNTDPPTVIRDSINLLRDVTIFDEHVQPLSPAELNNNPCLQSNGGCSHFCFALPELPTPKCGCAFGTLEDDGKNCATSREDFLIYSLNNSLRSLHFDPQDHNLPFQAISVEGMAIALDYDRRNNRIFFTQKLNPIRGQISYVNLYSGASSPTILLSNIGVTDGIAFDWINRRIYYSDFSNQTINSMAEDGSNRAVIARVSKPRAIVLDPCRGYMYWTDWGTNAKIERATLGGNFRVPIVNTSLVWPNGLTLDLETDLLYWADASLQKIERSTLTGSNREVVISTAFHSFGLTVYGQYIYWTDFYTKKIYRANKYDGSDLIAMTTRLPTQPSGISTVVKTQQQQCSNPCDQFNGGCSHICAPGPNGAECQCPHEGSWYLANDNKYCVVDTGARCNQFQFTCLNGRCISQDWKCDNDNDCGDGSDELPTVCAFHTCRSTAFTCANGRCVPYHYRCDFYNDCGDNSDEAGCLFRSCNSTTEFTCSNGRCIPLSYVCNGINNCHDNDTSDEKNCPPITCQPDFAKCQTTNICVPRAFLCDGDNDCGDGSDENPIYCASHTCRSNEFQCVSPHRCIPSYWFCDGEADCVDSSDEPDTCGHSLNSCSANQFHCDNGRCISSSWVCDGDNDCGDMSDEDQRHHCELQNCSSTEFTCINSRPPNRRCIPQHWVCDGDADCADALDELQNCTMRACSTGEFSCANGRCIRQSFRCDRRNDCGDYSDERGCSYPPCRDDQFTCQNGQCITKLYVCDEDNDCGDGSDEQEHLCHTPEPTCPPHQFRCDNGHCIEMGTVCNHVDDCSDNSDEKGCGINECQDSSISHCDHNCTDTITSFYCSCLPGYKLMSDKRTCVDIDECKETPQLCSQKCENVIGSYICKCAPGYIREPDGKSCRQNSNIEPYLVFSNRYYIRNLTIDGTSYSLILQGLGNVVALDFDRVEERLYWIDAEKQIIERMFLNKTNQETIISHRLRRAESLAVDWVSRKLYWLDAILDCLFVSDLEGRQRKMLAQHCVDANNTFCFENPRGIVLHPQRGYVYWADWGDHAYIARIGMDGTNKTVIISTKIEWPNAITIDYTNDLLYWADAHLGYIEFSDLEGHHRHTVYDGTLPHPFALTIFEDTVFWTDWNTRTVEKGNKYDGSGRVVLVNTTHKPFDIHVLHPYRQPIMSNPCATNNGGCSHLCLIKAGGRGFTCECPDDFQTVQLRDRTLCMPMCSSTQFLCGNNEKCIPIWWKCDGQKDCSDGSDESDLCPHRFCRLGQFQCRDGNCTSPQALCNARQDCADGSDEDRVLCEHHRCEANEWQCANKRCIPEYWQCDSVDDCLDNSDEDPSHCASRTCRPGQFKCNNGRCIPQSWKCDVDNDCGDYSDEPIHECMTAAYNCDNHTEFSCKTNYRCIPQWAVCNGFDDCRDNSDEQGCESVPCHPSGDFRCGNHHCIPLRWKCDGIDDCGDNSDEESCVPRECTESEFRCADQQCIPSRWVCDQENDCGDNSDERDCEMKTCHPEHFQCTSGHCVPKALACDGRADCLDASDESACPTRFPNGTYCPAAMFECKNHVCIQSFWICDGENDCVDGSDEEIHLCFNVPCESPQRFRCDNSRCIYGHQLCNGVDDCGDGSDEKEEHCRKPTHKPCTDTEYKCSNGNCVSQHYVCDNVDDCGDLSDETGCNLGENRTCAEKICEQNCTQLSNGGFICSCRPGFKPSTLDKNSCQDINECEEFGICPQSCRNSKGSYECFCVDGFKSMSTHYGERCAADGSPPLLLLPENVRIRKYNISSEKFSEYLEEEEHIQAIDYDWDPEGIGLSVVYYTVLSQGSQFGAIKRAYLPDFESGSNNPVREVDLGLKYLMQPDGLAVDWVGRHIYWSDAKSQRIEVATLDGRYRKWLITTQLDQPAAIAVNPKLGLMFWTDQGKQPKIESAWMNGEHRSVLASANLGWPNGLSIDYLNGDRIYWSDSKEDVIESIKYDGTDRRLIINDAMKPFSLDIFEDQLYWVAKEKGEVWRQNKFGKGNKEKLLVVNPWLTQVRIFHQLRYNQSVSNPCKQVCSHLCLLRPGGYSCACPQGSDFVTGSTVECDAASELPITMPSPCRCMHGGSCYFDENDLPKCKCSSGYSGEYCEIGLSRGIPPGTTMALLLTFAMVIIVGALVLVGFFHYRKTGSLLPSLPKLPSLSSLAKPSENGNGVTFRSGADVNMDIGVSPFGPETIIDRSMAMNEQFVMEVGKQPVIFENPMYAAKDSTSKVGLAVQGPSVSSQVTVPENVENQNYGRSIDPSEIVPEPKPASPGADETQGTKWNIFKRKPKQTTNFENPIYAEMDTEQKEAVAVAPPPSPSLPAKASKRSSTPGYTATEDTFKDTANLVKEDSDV

Row | Accumulation 3 hours after i.p. injection (%): Urine (Ngal-enterochelin-55Fe3+ complex, C57BL/6 mice) [%] | Binder
1 | 0.55 | B1
2 | 0.28 | B2
3 | 0.11 | B3
4 | 0.1 | B4
5 | 0.26 | B5
6 | 6 | B6
7 | 6.9 | B7
8 | 2.9 | B8
9 | 0.3 | B9
10 | 0.23 | B10
11 | 0.27 | B11
12 | 1.22 | B12
13 | 1.23 | B13
14 | 1.9 | B14
15 | 9.6 | B15
16 | 1.65 | B16
17 | 0.24 | B17
18 | 0.11 | B18
19 | 0.18 | B19
20 | 0.22 | B20
21 | 0.05 | B21
22 | 0.17 | B22
23 | 0.51 | B23
24 | 0.37 | B24
